We go through 1 molecule from patent publication US20140327158A1 (E3X BIO, published 2014).

This test deals with T1, HA-UbVS (HA-tagged ubiquitin vinyl sulfone activity probe) (UniProt P0CG48 1-75, C-terminal vinyl sulfone (VS) electrophilic trap).
T1 construct: Bought from Boston Biochem. Reacts covalently with the active site cysteine after specific recognition of Ub; also called Ub-vinyl sulfone
In words: HA-UbVS activity probe labeling, gel shift. From the text:
Reactions were terminated by the addition of SDS loading buffer.

B1: Parkin RBR (residues 238-465) (enzyme, UniProt O60260 238-465, looked up)
chain: CITCTDVRSPVLVFQCNSRHVICLDCFHLYCVTRLNDRQFVHDPQLGYSLPCVAGCPNSLIKELHHFRILGEEQYNRYQQYGAEECVLQMGGVLCPRPGCGAGLLPEPDQRKVTCEGGNGLGCGFAFCRECKEAYHEGECSAVFEASGTTTQAYRVDERAAEQARWEAASKETIKKTTKPCPRCHVPVEKNGGCMHMKCPQPQCRLEWCWNCGCEWNRVCMGDHWFDV
notes: range 238-465; also called RBR domain of Parkin
Take B1: the binding result was “binds”.
